{"source": "paper PMC4831154", "about": "“Expression and characterization of a novel 1,3-regioselective cold-adapted lipase from Rhizomucor endophyticus suitable for biodiesel synthesis” (Biotechnology for Biofuels, 2016)", "proteins": {"B1": {"name": "ReLipA (Mucor endophyticus) (protein)", "chain": "PAAGTKGETSSAAAPHNNATMTASSYILPPIIPSRTKPGNPAFKGDVNAEAESIAKNKKWYEDHGGNFKNITKRDTETVGGMTMDLPANAPPVTTSTGSGVVTASAAQIANFKLYAGIASTAYCRGVVPLGSWTCNNCLKYVPDGKLLVTFSSLLADTNGFVLRSDSQKTIHLVFRGTNSIRSAITDLIFDLATYSPVSGAKVHRGFLASYKEVVNTYFPVVQAQLTAYPSYKVVISGHSLGGAQALLAGMDLYQRDKRLSPSNLSIYTVGCPRVGNPAFAYYVDSTGIPFSRSVNDRDIVPHVPPQAFGYLHPGVEAWDISSRVQICTANIETNKCSNSIVPFTSFVDHLTYYGINEGLCL", "notes": "ORF 1167 bp; SP-Sepharose purified"}}, "assay_in_all_cases": "purified protein", "type_in_all_cases": "biochemical, Mucor endophyticus", "conditions_in_all_cases": "50 mM citrate buffer pH 6.0, 40 °C, 5 min", "key": {"purified protein [1]": {"substrate": "CCCCCCCCCCCCCC(=O)Oc1ccc([N+](=O)[O-])cc1"}, "purified protein [2]": {"substrate": "CCCCCCCC(=O)Oc1ccc([N+](=O)[O-])cc1"}, "purified protein [3]": {"substrate": "CCCCCCCCCCCC(=O)Oc1ccc([N+](=O)[O-])cc1"}}, "data": [{"protein": "B1", "values": [{"measurement": "Km", "setting": "purified protein [1]", "result": "0.10 ± 0.01", "unit": "mM"}, {"measurement": "kcat/Km", "setting": "purified protein [1]", "result": 1790, "unit": "M⁻¹ s⁻¹"}, {"measurement": "Km", "setting": "purified protein [2]", "result": "2.30 ± 0.21", "unit": "mM"}, {"measurement": "kcat/Km", "setting": "purified protein [2]", "result": 387, "unit": "M⁻¹ s⁻¹"}, {"measurement": "Km", "setting": "purified protein [3]", "result": "0.64 ± 0.06", "unit": "mM"}, {"measurement": "kcat/Km", "setting": "purified protein [3]", "result": 416, "unit": "M⁻¹ s⁻¹"}]}]}
